Publication PMC8783683, “Plasma cell dependence on histone/protein deacetylase 11 reveals a therapeutic target in multiple myeloma” (JCI Insight, 2021)

T1: IFN response factor 4 (IRF4), endogenous (human (endogenous in MM1.S and primary …, UniProt Q15306 1-451))
T1 construct: IRF4, endogenous in human multiple myeloma cells (MM1.S line and primary patient MM cells), detected or precipitated by anti-IRF4; source: endogenous, MM1.S cells (fixed cells and lysate); endogenous, patient-derived primary MM cells
T1 sequence (looked up): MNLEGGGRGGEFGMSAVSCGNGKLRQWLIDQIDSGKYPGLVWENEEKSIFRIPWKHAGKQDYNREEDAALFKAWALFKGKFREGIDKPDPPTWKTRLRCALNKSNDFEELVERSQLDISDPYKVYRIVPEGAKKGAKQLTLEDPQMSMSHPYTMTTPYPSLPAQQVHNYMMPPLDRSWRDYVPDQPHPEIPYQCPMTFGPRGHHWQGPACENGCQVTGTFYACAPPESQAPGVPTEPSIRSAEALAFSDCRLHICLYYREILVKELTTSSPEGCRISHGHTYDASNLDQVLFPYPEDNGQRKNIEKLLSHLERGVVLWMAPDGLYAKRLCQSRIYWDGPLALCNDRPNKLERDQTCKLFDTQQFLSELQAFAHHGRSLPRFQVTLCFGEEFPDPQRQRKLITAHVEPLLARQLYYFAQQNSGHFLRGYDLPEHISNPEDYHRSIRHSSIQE


Columns and labels:
[1] = target: T1, IFN response factor 4 (IRF4), endogenous; assay: proximity ligation assay (PLA); details: MM1.S cells transfected with OE.HDAC11mut, read off a plot
[2] = target: T1, IFN response factor 4 (IRF4), endogenous; assay: proximity ligation; primary MM cells from patient samples, cultured with the patient's serum, untreated or with LPS (5 μg/mL, 24 hours); details: partners not purified

| response (# Foci Per Cell) ([1]; cytoplasmic foci, parent: est. 17) | response (# Foci Per Cell) ([1]; nuclear foci, parent: est. 105) | fold increase of nuclear PLA complexes with LPS against untreated cells [2] | Molecule |
| --- | --- | --- | --- |
| 18 | 13 | – | HA-tagged WT HDAC11 (HDAC11^wt.HA) (from UniProt Q96DB2) HDAC11mut |
| – | – | 4.5 fold | histone/protein deacetylase 11 (HDAC11), endogenous (enzyme, UniProt Q96DB2 1-347, looked up, HDAC11, endogenous in human multiple myeloma cells (MM1.S line and primary patient MM cells), detected by mouse anti-HDAC11 in PLA; source: endogenous, MM1.S cells; endogenous, patient-derived primary MM cells) MLHTTQLYQHVPETRWPIVYSPRYNITFMGLEKLHPFDAGKWGKVINFLKEEKLLSDSMLVEAREASEEDLLVVHTRRYLNELKWSFAVATITEIPPVIFLPNFLVQRKVLRPLRTQTGGTIMAGKLAVERGWAINVGGGFHHCSSDRGGGFCAYADITLAIKFLFERVEGISRATIIDLDAHQGNGHERDFMDDKRVYIMDVYNRHIYPGDRFAKQAIRRKVELEWGTEDDEYLDKVERNIKKSLQEHLPDVVVYNAGTDILEGDRLGGLSISPAGIVKRDELVFRMVRGRRVPILMVTSGGYQKRTARIIADSILNLFGLGLIGPESPSVSAQNSDTPLLPPAVP |
